Assay results reported in US20250270319A1 (Alector, published 2025).
Read-outs that look alike come from different tables or passages of the source.

Tests used:
[1] = biological target: T1, human CD33 on primary human dendritic cells (human, UniProt P20138 18-364); experiment: cell-based or functional assay
[2] = biological target: T2, recombinant human CD33 protein (Sino Biologicals) (human, UniProt P20138 18-259); experiment: BLI (ForteBio), antibody on anti-human Fc sensor, CD33 10 nM
T2 construct: Bought protein; also called recombinant CD33
Method: Affinity parameters of the antibody variants for human CD33 were measured by BioLayer Interferometry in a ForteBio assay according to standard techniques (Estep et al. (2013) MAbs 5(2): 270-8) and were compared to those of the parental antibody (antibody 6C7H8) and the parental humanized antibody (antibody 6C71H5). Briefly, the antibodies were captured on anti-human Fc Biosensors (Pall ForteBio). Recombinant human CD33 (10 nM, Sino Biologicals) was then bound to the captured anti-CD33 surface (200 s association time, 1200 s dissociation time). Local fitting was used to extract association and dissociation rate constants (kₐ and kd, respectively) for each antibody. Apparent affinity constants (KD) were calculated from the ratio kd/kₐ.

[3] = biological target: T2, recombinant human CD33 protein (Sino …); experiment: ELISA, plate coated with recombinant CD33
[4] = biological target: T1, human CD33 on primary human dendritic …; experiment: cell-based or functional assay; remark: listed apart in the source
[5] = biological target: T3, recombinant cynomolgus CD33 protein (NovoProtein) (cynomolgus); experiment: ELISA, plate coated with recombinant CD33
T3 construct: Bought protein; also called cyno CD33
T3 sequence (chain, as listed by the source limits assumed): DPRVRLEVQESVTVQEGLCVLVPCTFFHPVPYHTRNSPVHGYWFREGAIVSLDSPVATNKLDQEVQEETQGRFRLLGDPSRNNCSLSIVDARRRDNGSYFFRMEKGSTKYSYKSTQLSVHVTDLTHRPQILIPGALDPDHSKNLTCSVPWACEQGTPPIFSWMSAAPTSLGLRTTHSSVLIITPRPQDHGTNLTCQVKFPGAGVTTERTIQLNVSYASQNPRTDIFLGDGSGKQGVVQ

T1 sequence (P20138 18-364): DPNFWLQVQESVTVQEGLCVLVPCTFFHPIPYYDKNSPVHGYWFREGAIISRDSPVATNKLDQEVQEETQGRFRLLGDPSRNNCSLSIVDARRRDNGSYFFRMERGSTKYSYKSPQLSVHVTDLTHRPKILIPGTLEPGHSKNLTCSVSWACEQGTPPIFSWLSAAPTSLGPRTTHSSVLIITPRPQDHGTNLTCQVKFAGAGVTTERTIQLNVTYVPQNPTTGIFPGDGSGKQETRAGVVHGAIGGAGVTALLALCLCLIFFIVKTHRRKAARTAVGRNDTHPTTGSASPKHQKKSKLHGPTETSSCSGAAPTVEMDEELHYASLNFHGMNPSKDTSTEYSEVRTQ
T2 sequence (P20138 18-259 limits assumed): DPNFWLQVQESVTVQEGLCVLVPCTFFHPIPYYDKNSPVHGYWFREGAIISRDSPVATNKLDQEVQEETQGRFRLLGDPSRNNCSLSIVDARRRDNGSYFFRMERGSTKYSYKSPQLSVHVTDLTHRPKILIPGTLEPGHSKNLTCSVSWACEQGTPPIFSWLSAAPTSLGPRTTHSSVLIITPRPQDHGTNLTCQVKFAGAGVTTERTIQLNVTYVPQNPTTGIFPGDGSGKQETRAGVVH

Binder | EC50 [3] [nM] | Fold increase in potency compared to 6C7H5 [4] [fold] | Receptor downregulation, (EC50) (pM) [4] [pM] | other results
anti-CD33 antibody 6C7H21 (antibody, V domains shown, VH/VL only) VH: EVQLVESGGGLVQPGGSLRLSCAGSGFTFSNYQMNWVRQAPGKGLEWVAEIRLKSNNYVTNYAASVKGRFTISRDDSKNSVYLQMNSLKTEDTGVYYCTRAGYYVPFAYWGQGTLVTVSS VL: QLVLTQSPSASASLGASVKLTCTLSSQHSTYTIEWYQQQPEKGPRYLMELKKEGSHSTGDGIPDRFSGSSSGAERYLTISSLQSEDEADYYCGVGDTIKEQFVYVFGGGTKLTVL | 0.16 | – | – | Fold increase in potency compared to 6C7H5 [1]: 1.2 fold; Maximal reduction in CD33 (% remaining) [1]: 28.3 % remaining; Receptor downregulation, (EC50) (pM) [1]: 34.7 pM; Kd [2]: 0.528 nM; koff [2]: 0.000263 s⁻¹; kon [2]: 498000 M⁻¹ s⁻¹
anti-CD33 antibody 6C7H28 (antibody, V domains shown, VH/VL only) VH: EVQLVESGGGLVQPGGSLRLSCAGSGFTFSDYSMNWVRQAPGKGLEWVAEIRLKSNNYVTNYAASVKGRFTISRDDSKNSVYLQMNSLKTEDTGVYYCTRAGYYVPFAYWGQGTLVTVSS VL: QLVLTQSPSASASLGASVKLTCTLSSQHSTYTIEWYQQQPEKGPRYLMELKKEGSHSTGDGIPDRFSGSSSGAERYLTISSLQSEDEADYYCGVGDTIKEQFVYVFGGGTKLTVL | – | – | – | Fold increase in potency compared to 6C7H5 [1]: 0.3 fold; Maximal reduction in CD33 (% remaining) [1]: 27.6 % remaining; Receptor downregulation, (EC50) (pM) [1]: 147 pM; Kd [2]: 0.76 nM; koff [2]: 0.000859 s⁻¹; kon [2]: 1.13e+06 M⁻¹ s⁻¹
anti-CD33 antibody 6C7H29 (antibody, V domains shown, VH/VL only) VH: EVQLVESGGGLVQPGGSLRLSCAGSGFTFSAYSMNWVRQAPGKGLEWVAEIRLKSNNYVTNYAASVKGRFTISRDDSKNSVYLQMNSLKTEDTGVYYCTRAGYYVPFAYWGQGTLVTVSS VL: QLVLTQSPSASASLGASVKLTCTLSSQHSTYTIEWYQQQPEKGPRYLMELKKEGSHSTGDGIPDRFSGSSSGAERYLTISSLQSEDEADYYCGVGDTIKEQFVYVFGGGTKLTVL | – | – | – | Fold increase in potency compared to 6C7H5 [1]: 0.3 fold; Maximal reduction in CD33 (% remaining) [1]: 27.3 % remaining; Receptor downregulation, (EC50) (pM) [1]: 134 pM; Kd [2]: 0.991 nM; koff [2]: 0.000868 s⁻¹; kon [2]: 875000 M⁻¹ s⁻¹
anti-CD33 antibody 6C7H31 (antibody, V domains shown, VH/VL only) VH: EVQLVESGGGLVQPGGSLRLSCAASGSTFSEYDMLWVRQAPGKGLEWVGEIRLKSNNYVTNYAASVKGRFTISRDDSKNSVYLQMNSLKTEDTGVYYCTRAGYYVPFAYWGQGTLVTVSS VL: QPVLTQSPSASASLGASVKLTCTLSSQHSTYTIEWYQQQPEKGPRYLMELKKEGSHSTGDGIPDRFSGSSSGAERYLTISSLQSEDEADYYCGVGVTIKEQFVYVFGGGTKLTVL | 0.21 | 0.6 | 67.7 | –
anti-CD33 antibody 6C7H32 (antibody, V domains shown, VH/VL only) VH: EVQLVESGGGLVQPGGSLRLSCAASGSTFSEYDMLWVRQAPGKGLEWVGEIRLKSNNYVTNYAASVKGRFTISRDDSKNSVYLQMNSLKTEDTGVYYCTRAGYYVPFAYWGQGTLVTVSS VL: QLMLTQSPSASASLGASVKLTCTLSSQHSTYTIEWYQQQPGKGPRYLMELKKEGSHSTGDGIPDRFSGSSSGAERYLTISSLQSEDEADYYCGVGHTIKEQFVYEFGGGTKLTVL | 0.2 | 0.9 | 47.2 | –
anti-CD33 antibody 6C7H33 (antibody, V domains shown, VH/VL only) VH: EVQLVESGGGLVQPGGSLRLSCAASGSTFSEYDMLWVRQAPGKGLEWVGEIRLKSNNYVTNYAASVKGRFTISRDDSKNSVYLQMNSLKTEDTGVYYCTRAGYYVPFAYWGQGTLVTVSS VL: QLMLTQSPSASASLGASVKLTCTLSSQHSTYTIEWYQQQPGKGPRYLMELKKEGSHSTGDGIPDRFSGSSSGAERYLTISSLQSEDEADYYCGVGHTIKEQFVYVFGGGTKLTVL | 0.17 | 0.8 | 50 | –
anti-CD33 antibody 6C7H34 (antibody, V domains shown, VH/VL only) VH: EVQLVESGGGLVQPGGSLRLSCAASGSTFSEYDMLWVRQAPGKGLEWVGEIRLKSNNYVTNYAASVKGRFTISRDDSKNSVYLQMNSLKTEDTGVYYCTRAGYYVPFAYWGQGTLVTVSS VL: QPMLTQSPSASASLGASVKLTCTLSSQHSTYTIEWYQQQPGKGPRYLMELKKEGSHSTGDGIPDRFSGSSSGAERYLTISSLQSEDEADYYCGVGLTIKEQFVYVFGGGTKLTVL | 0.17 | 0.7 | 60.3 | –
anti-CD33 antibody 6C7H35 (antibody, V domains shown, VH/VL only) VH: EVQLVESGGGLVQPGGSLRLSCAASGFTFSEYAMLWVRQAPGKGLEWVGEIRLKSNNYVTNYAASVKGRFTISRDDSKNSVYLQMNSLKTEDTGVYYCTRAGYYVPFTYWGQGTLVTVSS VL: QPVLTQSPSASASLGASVKLTCTLSSQHSTYTIEWYQQQPEKGPRYLMELKKEGSHSTGDGIPDRFSGSSSGAERYLTISSLQSEDEADYYCGVGVTIKEQFVYVFGGGTKLTVL | 0.21 | 0.8 | 51 | –
anti-CD33 antibody 6C7H36 (antibody, V domains shown, VH/VL only) VH: EVQLVESGGGLVQPGGSLRLSCAASGFTFSEYAMLWVRQAPGKGLEWVGEIRLKSNNYVTNYAASVKGRFTISRDDSKNSVYLQMNSLKTEDTGVYYCTRAGYYVPFTYWGQGTLVTVSS VL: QLMLTQSPSASASLGASVKLTCTLSSQHSTYTIEWYQQQPGKGPRYLMELKKEGSHSTGDGIPDRFSGSSSGAERYLTISSLQSEDEADYYCGVGHTIKEQFVYEFGGGTKLTVL | 0.13 | 0.9 | 49.1 | EC50 [5]: 4 nM; Relative maximal binding (cyno/human) [5]: 0.34; Relative potency (human/cyno) [5]: 0.03
anti-CD33 antibody 6C7H37 (antibody, V domains shown, VH/VL only) VH: EVQLVESGGGLVQPGGSLRLSCAASGFTFSEYAMLWVRQAPGKGLEWVGEIRLKSNNYVTNYAASVKGRFTISRDDSKNSVYLQMNSLKTEDTGVYYCTRAGYYVPFTYWGQGTLVTVSS VL: QLMLTQSPSASASLGASVKLTCTLSSQHSTYTIEWYQQQPGKGPRYLMELKKEGSHSTGDGIPDRFSGSSSGAERYLTISSLQSEDEADYYCGVGHTIKEQFVYVFGGGTKLTVL | 0.26 | 0.7 | 59.3 | EC50 [5]: 5.62 nM; Relative maximal binding (cyno/human) [5]: 0.45; Relative potency (human/cyno) [5]: 0.05
anti-CD33 antibody 6C7H39 (antibody, V domains shown, VH/VL only) VH: EVQLVESGGGLVQPGGSLRLSCAASGFTFSEYDMLWVRQAPGKGLEWVGEIRLKSNNYVTNYAASVKGRFTISRDDTKNSVYLQMNSLKTEDTGVYYCTRAGYYVPFAYWGQGTLVTVSS VL: QPVLTQSPSASASLGASVKLTCTLSSQHSTYTIEWYQQQPEKGPRYLMELKKEGSHSTGDGIPDRFSGSSSGAERYLTISSLQSEDEADYYCGVGVTIKEQFVYVFGGGTKLTVL | 0.23 | 1.1 | 38.7 | –
anti-CD33 antibody 6C7H40 (antibody, V domains shown, VH/VL only) VH: EVQLVESGGGLVQPGGSLRLSCAASGFTFSEYDMLWVRQAPGKGLEWVGEIRLKSNNYVTNYAASVKGRFTISRDDTKNSVYLQMNSLKTEDTGVYYCTRAGYYVPFAYWGQGTLVTVSS VL: QLMLTQSPSASASLGASVKLTCTLSSQHSTYTIEWYQQQPGKGPRYLMELKKEGSHSTGDGIPDRFSGSSSGAERYLTISSLQSEDEADYYCGVGHTIKEQFVYEFGGGTKLTVL | 0.19 | 1.1 | 37.2 | –
anti-CD33 antibody 6C7H41 (antibody, V domains shown, VH/VL only) VH: EVQLVESGGGLVQPGGSLRLSCAASGFTFSEYDMLWVRQAPGKGLEWVGEIRLKSNNYVTNYAASVKGRFTISRDDTKNSVYLQMNSLKTEDTGVYYCTRAGYYVPFAYWGQGTLVTVSS VL: QLMLTQSPSASASLGASVKLTCTLSSQHSTYTIEWYQQQPGKGPRYLMELKKEGSHSTGDGIPDRFSGSSSGAERYLTISSLQSEDEADYYCGVGHTIKEQFVYVFGGGTKLTVL | 0.23 | 1.2 | 34.2 | –
anti-CD33 antibody 6C7H49 (antibody, V domains shown, VH/VL only) VH: EVQLVESGGGLVQPGGSLRLSCAASGFTFSEYDMLWVRQAPGKGLEWVGEIRLKSNNYVTNYAASVKGRFTISRDDSKNSVYLQMNSLKTEDTGVYYCTRAGYYVPFAYWGQGTLVTVSS VL: QPVLTQSPSASASLGASVKLTCTLSSQHSTYTIEWYQQQPEKGPRYLMELKKEGSHSTGDGIPDRFSGSSSGAERYLTISSLQSEDEADYYCGVGVTIKEQFVYVFGGGTKLTVL | 0.3 | 0.6 | 69.7 | –
anti-CD33 6C7 chimeric antibody (antibody, V domains shown, detected with anti-human IgG; also called 6C7 Chimeric Ab) VH: EVKLEESGGGLVQPGGSMKLSCVGSGFTFSNYCMNWVRQSPEKGLEWVAEIRLKSNNYVTNYVESVKGRFTISRDDSKSRVYLQMNNLRGEDTGFYYCTRDGYYVPFAYWGQGTLVTVSA VL: QLVLTQSSSASFSLGASAKLTCTLSSQHSTYTIEWYQQQPLKPPKYVMELKKDGSHSTGDGIPDRFSGSSSGADRYLSISNIQPEDEAIYICGVGDTIKEQFVYVFGGGTKVTVL | – | – | – | EC50 [5]: 2.96 nM; Relative maximal binding (cyno/human) [5]: 0.47; Relative potency (human/cyno) [5]: 0.06
